Test results published in the supplement of paper PMC9170038.

System: MS2 coat protein
Test: apparent KD of MS2 coat protein; designed switch direction (-1 OFF switch, 1 ON switch): -1; higher = weaker reporter binding
Method in brief: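 Designed RNA switches with common flanks were made on Illumina chips by stalled E. coli RNA polymerase. Titration with SNAP-549-labelled MS2 coat protein doubled from 0.7 or 1.5 nM up to 3 µM. Apparent KD is each design's median over clusters after curve-fitting normalised fluorescence.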

[1] = input ligand: microRNA oligo, concentration not stated
[2] = Eterna round: R95, input ligand: microRNA oligo, concentration not stated

Sequence	apparent KD of MS2 coat protein (input ligand: FMN 200 uM) [nM]	apparent KD of MS2 coat protein [1] [nM]	apparent KD of MS2 coat protein (input ligand: none) [nM]	apparent KD of MS2 coat protein [2] [nM]	apparent KD of MS2 coat protein (Eterna round: R95, input ligand: FMN 200 uM) [nM]	apparent KD of MS2 coat protein (Eterna round: R95, input ligand: none) [nM]
UUUUUUUUGCGAGGAUAUGCUUUUAGUAAGUUAGCAGAAGGCGCGUUACAUAGAACCUCUUCUUACAUGAGGAUCACCCAUGUU [JR_ExcNG1_Sub035] (Eterna round: R96, puzzle: Exclusion NG 1)	95.6	56	61.9	–	–	–
CUCGAGUCAGGAUAUGUUCCGCAUGGCAACAUGCUAUAAGAAUAGAAGGGACAUGAGGAUCACCCAUGUUAACA [Eternabot (Original) Solution 12] (Eterna round: R97, puzzle: Exclusion 4)	162	–	44.7	–	–	–
GUGAAGUAAGGAUAUAGUGGAAAAGAUAAGGUAUGAGAGUUCUAGAAGGUACAUGAGGAUCACCCAUGUUAGGG [JR_Exclu4_Sub085] (puzzle: Exclusion 4)	–	–	–	267	–	–
UGAAGUAGAAACCGAUCCUACAUGAGGAUCACCCAUGUAGCAAGACGUGCACGCGAAGCUCGUCAGACUACCAGAAG [salish99_TOv1_r3_002] (puzzle: Sensor v3, turn-off variant 1)	–	–	–	167	170	366
UAUCGCAAGCGAAGAUCCCACAUGAGGAUCACCCAUGUGCUCGUCUUAUAAGGUACUGUGACGAUAGUCACGGUACC [Mat - Sensor, turn-off var - Eli Mod - D77] (Eterna round: R97, puzzle: Sensor, turn-off variant 1)	33.6	–	24.9	–	–	–
UACAUGAGGAUCACCCAUGUUUUGUCGUGUAUGGUAUUUAUCUAGGAUAUCAAGUUACUUAUUUAUGAGAAGGAGAAUAUUAAU [JMF's solution 30] (Eterna round: R96, puzzle: Exclusion NG 3)	39.2	21.2	25.2	–	–	–
UUGAAGUCAUCAGGAUAUAGUAUUAAAGACAUUUAUUUUUUCAUACAUGAGGAUCACCCAUGUCGCUAGAAGGGAUUAUAGAUU [JR_ExcNG2_Sub079] (Eterna round: R96, puzzle: Exclusion NG 2)	–	38.4	–	–	–	–
UAUCGGGACUGAGGAUAUUCGUUCGAACACGAAGAAGAAGGUAGUGUCAGGGACAUGAGGAUCACCCAUGUGAUCUCAGUCCUA [JL ViennaUCT Erinle mod 2] (Eterna round: R96, puzzle: Exclusion NG 1)	130	67.9	100	–	–	–
UAUAUAUAGUAAGGAUAUGUAAUUAUUUAAUAAACAGAAGGUACUGACAUGAGGAUCACCCAUGUUUUAGUGUGGGCAUGUAGA [JMF's solution 41] (Eterna round: R96, puzzle: Exclusion NG 1)	–	69.4	–	–	–	–
CAGUACUGAGGAUAUACAUGAGGAUCACCCAUGUGCUCUAGCUAGGAUACUAGCAUUAGUAGAAGGCAGUACUG [Fiskers Ex 3 828 mod 8] (Eterna round: R96, puzzle: Exclusion 3)	132	14.4	19.7	–	–	–
CGUCAGUGAGGAUAUGGUAACGUUUACAUGAGGAUCACCCAUGUUUCAUGGGACUAGAGACUAGAAGGCACUGACG [JR_Ex5_Sub030] (Eterna round: R97, puzzle: Exclusion 5)	439	–	416	–	–	–
AGCGAGACAGGAUAUACUUGAGGAUCACCCAAGUCACAAAGGGUCUCACUCUUCACUAGUAGAAGGGUCGUGUA [Lereer] (Eterna round: R97, puzzle: Exclusion 3)	24.1	–	18.7	–	–	–
GGAUCGAAAGUGAGGAUAUACCACUGGAUACAGUGGUAGAAGGCACAUGAGGAUCACCCAUGUCCUUACGAUCC [Fiskers BMX 4 - 48] (puzzle: Brourd's mod of Exclusion 4)	–	–	–	20.5	–	–
AGCUGUGGCCGAGGAUAUGACAUGAGGAUCACCCAUGUACAUAAUUAGGCCUGGUAACAGGCUCGUCAGAAGGCGGUCUCAGCA [Eli eng2 - 007] (Eterna round: R96, puzzle: Exclusion NG 2)	12.3	8.31	12.6	–	–	–
